Values belong to the binder of their own block, whether it stands above or below them.
Legend:
Assay in all cases: holdup assay
Design in all cases: key: below the threshold = too weak to quantify, mostly under pKd 3.1 to 4
[1] = molecular target: T1, NHERF3_4, Q5T2W1
T1 sequence (Q5T2W1 373-468, limits assumed, looked up): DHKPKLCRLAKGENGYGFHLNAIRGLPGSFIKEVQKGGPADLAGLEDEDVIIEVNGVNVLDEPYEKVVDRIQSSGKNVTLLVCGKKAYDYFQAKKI

[2] = molecular target: DLG4_3, P78352
[3] = molecular target: HTRA2, O43464
HTRA2, O43464, sequence (O43464 355-458): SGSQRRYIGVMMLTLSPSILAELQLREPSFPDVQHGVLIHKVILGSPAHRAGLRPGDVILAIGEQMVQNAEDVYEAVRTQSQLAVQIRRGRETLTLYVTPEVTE

[4] = molecular target: LNX1_3, Q8TBB1
LNX1_3, Q8TBB1, sequence (Q8TBB1 500-596): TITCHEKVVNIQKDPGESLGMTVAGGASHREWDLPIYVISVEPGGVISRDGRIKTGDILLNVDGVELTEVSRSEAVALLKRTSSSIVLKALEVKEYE

[5] = molecular target: IL16_4, Q14005
IL16_4, Q14005, sequence (Q14005 1229-1329): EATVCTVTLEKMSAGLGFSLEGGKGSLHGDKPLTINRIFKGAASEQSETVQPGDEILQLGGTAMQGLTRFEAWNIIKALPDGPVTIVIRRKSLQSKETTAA

[6] = molecular target: GRIP2_6, Q9C0E4
GRIP2_6, Q9C0E4, sequence (Q9C0E4 648-740): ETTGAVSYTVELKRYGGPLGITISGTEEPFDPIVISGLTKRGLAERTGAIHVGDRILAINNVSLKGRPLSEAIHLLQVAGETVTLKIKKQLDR

[7] = molecular target: Inadl_3, Q8NI35
Inadl_3, Q8NI35, sequence (Q8NI35 359-469): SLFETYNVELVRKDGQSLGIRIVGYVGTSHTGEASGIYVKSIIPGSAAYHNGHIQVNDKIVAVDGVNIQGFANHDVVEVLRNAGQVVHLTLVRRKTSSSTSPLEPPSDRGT

[8] = molecular target: MAGI2_2, Q86UL8
MAGI2_2, Q86UL8, sequence (Q86UL8 410-522): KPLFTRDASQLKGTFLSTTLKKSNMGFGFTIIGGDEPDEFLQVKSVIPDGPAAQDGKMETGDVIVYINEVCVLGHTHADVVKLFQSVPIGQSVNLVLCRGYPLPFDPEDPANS

[9] = molecular target: T2, LNX2_3, Q8N448
T2 sequence (Q8N448 463-564, limits assumed, looked up): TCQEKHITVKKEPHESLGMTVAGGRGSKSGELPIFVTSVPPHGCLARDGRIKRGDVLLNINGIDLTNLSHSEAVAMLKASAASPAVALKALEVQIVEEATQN

[10] = molecular target: T3, MPDZ_12, O75970
T3 sequence (O75970 1857-1958, limits assumed, looked up): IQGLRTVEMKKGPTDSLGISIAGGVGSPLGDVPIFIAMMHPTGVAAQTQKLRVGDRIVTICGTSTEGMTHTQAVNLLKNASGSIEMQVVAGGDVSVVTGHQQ

[11] = molecular target: Inadl_8, Q8NI35
Inadl_8, Q8NI35, sequence (Q8NI35 1425-1530): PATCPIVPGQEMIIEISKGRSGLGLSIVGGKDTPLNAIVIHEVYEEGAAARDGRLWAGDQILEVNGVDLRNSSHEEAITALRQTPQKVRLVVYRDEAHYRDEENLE

[12] = molecular target: DLG5_1, Q8TDM6
DLG5_1, Q8TDM6, sequence (Q8TDM6 617-713): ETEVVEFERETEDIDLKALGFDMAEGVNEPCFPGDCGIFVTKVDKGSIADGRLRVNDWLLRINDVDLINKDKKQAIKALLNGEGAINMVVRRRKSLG

[13] = molecular target: SCRIB_1, Q14160
SCRIB_1, Q14160, sequence (Q14160 718-814): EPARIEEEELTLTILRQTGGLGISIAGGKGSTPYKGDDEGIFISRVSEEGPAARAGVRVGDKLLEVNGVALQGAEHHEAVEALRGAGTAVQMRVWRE

[14] = molecular target: SNX27, Q96L92
[15] = molecular target: T4, LIN7A, O14910
T4 sequence (O14910 103-200, limits assumed, looked up): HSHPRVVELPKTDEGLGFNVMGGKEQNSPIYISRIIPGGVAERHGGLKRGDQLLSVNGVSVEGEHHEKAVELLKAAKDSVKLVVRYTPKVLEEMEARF

[16] = molecular target: T5, APBA1_2, Q02410
T5 sequence (Q02410 742-832, limits assumed, looked up): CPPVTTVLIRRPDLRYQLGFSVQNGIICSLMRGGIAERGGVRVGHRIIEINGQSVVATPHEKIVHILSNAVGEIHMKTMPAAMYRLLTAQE

[17] = molecular target: PARD3_3, Q8TEW0
PARD3_3, Q8TEW0, sequence (Q8TEW0 582-685): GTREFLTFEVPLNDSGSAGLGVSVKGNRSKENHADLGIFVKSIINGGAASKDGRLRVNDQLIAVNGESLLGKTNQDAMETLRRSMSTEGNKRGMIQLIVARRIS

[18] = molecular target: TJP2_1, Q9UDY2
TJP2_1, Q9UDY2, sequence (Q9UDY2 24-128): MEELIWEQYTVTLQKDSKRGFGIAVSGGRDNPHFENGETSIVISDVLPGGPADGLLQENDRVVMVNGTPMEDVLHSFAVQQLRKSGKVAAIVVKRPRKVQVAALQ

[19] = molecular target: GRIP2_4, Q9C0E4
GRIP2_4, Q9C0E4, sequence (Q9C0E4 446-548): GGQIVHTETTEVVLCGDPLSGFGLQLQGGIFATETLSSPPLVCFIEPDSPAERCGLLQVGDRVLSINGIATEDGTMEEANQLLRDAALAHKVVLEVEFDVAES

[20] = molecular target: T6, PDZD2_2, O15018
T6 sequence (O15018 329-429, limits assumed, looked up): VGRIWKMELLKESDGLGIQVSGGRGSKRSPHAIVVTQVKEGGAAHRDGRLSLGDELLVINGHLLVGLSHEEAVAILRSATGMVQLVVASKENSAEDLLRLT

[21] = molecular target: T7, CARD11, Q9BXL7
T7 sequence (Q9BXL7 662-765, limits assumed, looked up): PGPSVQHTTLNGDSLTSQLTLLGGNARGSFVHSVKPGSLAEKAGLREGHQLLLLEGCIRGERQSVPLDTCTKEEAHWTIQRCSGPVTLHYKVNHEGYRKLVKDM

[22] = molecular target: MAGI1_1, Q96QZ7
MAGI1_1, Q96QZ7, sequence (Q96QZ7 1-106): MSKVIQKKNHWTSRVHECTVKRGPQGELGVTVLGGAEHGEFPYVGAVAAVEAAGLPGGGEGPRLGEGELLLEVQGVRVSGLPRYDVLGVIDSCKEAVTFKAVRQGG

[23] = molecular target: Inadl_9, Q8NI35
Inadl_9, Q8NI35, sequence (Q8NI35 1530-1615): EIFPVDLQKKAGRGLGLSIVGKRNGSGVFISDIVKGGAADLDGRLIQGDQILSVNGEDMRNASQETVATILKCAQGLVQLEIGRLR

[24] = molecular target: NHERF2_2, Q15599
NHERF2_2, Q15599, sequence (Q15599 142-238): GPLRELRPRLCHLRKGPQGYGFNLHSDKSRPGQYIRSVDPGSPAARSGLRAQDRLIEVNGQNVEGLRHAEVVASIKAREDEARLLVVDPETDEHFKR

[25] = molecular target: NHERF4_1, Q86UT5-2
NHERF4_1, Q86UT5-2, sequence (Q86UT5 other isoform, or with tags, fused parts or gaps): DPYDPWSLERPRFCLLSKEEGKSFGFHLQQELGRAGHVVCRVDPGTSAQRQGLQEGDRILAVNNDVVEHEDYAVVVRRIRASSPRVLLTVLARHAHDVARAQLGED

[26] = molecular target: T8, SHANK1, Q9Y566
T8 sequence (Q9Y566 658-767, limits assumed, looked up): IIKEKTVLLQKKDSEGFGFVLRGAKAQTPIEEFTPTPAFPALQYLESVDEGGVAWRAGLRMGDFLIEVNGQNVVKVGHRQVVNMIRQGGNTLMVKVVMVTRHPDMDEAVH

[27] = molecular target: T9, RAPGEF6, Q8TEU7
T9 sequence (Q8TEU7 525-625, limits assumed, looked up): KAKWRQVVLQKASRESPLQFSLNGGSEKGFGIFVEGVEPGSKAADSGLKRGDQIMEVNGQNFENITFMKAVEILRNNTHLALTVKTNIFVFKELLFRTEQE

[28] = molecular target: LIMK2, P53671
LIMK2, P53671, sequence (P53671 143-248): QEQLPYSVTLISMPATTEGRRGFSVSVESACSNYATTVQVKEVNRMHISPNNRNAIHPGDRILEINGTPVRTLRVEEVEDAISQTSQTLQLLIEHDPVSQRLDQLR

[29] = molecular target: GRASP, Q7Z6J2
GRASP, Q7Z6J2, sequence (Q7Z6J2 96-193): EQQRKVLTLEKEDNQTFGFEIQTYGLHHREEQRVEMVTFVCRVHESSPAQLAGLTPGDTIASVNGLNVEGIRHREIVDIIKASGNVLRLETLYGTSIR

[30] = plain residues with an end cap or a label only (N-terminal biotin on a linker: ado-ado)
[31] = modified: acetyl on K at position -1 from the C-terminal residue

DLG4_3, P78352, sequence (P78352 306-403): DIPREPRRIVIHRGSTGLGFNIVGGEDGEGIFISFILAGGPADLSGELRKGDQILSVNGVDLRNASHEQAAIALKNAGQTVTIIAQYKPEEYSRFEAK

pKd [1, 30]: below the threshold
pKd [2, 30]: below the threshold
pKd [3, 30]: below the threshold
pKd [4, 30]: below the threshold
pKd [5, 30]: below the threshold
pKd [6, 30]: below the threshold
pKd [7, 30]: below the threshold
pKd [8, 30]: below the threshold
pKd [9, 30]: below the threshold
pKd [10, 30]: below the threshold
pKd [11, 30]: below the threshold
pKd [12, 30]: below the threshold
pKd [13, 30]: below the threshold
pKd [14, 30]: below the threshold
pKd [15, 30]: below the threshold
pKd [16, 30]: below the threshold
pKd [17, 30]: below the threshold
pKd [18, 30]: below the threshold
pKd [19, 30]: below the threshold
pKd [20, 30]: below the threshold
pKd [21, 30]: below the threshold
pKd [22, 30]: below the threshold
pKd [23, 30]: below the threshold
pKd [24, 30]: below the threshold
pKd [25, 30]: below the threshold
pKd [26, 30]: below the threshold
pKd [27, 30]: below the threshold
pKd [28, 30]: below the threshold
pKd [29, 30]: below the threshold
Binder: LETREPTNTL [GRIP1, Q9Y3R0]

pKd [1, 31]: below the threshold
pKd [2, 31]: below the threshold
pKd [3, 31]: below the threshold
pKd [4, 31]: below the threshold
pKd [5, 31]: below the threshold
pKd [6, 31]: below the threshold
pKd [7, 31]: below the threshold
pKd [8, 31]: 3.77
pKd [9, 31]: below the threshold
pKd [10, 31]: below the threshold
pKd [11, 31]: 4.82
pKd [12, 31]: below the threshold
pKd [13, 31]: 5.23
pKd [14, 31]: 5.32
pKd [15, 31]: below the threshold
pKd [16, 31]: 4.26
pKd [17, 31]: 3.97
pKd [18, 31]: 3.96
pKd [19, 31]: below the threshold
pKd [20, 31]: 4.22
pKd [21, 31]: below the threshold
pKd [22, 31]: below the threshold
pKd [23, 31]: 3.67
pKd [24, 31]: 3.77
pKd [25, 31]: below the threshold
pKd [26, 31]: 4.18
pKd [27, 31]: below the threshold
pKd [28, 31]: below the threshold
pKd [29, 31]: 5.32
Binder: DEDQHTQITKV [PTEN_Ac, P60484]

— publication PMC9482650, “Quantitative fragmentomics allow affinity mapping of interactomes” (Nature Communications, 2022)
